Assay results: patent publication US20060062783A1 (Amgen, published 2006)
Where a chain is given by its changes, count along the chain named.

Experiments:
[1] = biological target: T1, Human PTH (1-34) (human, not fully specified); assay: BiaCore, 37° C., 34mer
T1 construct: Synthetic peptide bought from Bachem; also called hPTH (1-34); human 34mer
T1 peptide: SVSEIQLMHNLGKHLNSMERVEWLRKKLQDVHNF

[2] = biological target: T1, Human PTH (1-34); assay: BiaCore, 25° C., 34mer
[3] = biological target: T2, Rat PTH (1-84) (rat); assay: ELISA on coated peptide; B cell supernatant
T2 construct: Synthetic peptide bought from Bachem; also called Rat 84mer
T2 peptide: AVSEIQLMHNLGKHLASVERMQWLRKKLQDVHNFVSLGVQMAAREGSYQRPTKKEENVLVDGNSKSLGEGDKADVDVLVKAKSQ

[4] = biological target: T3, Human PTH (18-48) (human); assay: ELISA on coated peptide; B cell supernatant
T3 construct: Synthetic peptide bought from Bachem; also called hPTH18-48; 18-48mer
T3 peptide: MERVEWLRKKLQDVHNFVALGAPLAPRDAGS

[5] = biological target: T4, Human PTH (1-84) (human); assay: ELISA on coated peptide; B cell supernatant
T4 construct: Synthetic peptide bought from Bachem; also called hPTH1-84; Hu 84mer
T4 peptide: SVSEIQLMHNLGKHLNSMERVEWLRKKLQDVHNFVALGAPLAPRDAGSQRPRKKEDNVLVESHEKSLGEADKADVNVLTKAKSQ

[6] = biological target: T4, Human PTH (1-84); assay: BiaCore, 37° C., 84mer
[7] = biological target: T5, endogenous human PTH in pooled serum from hemodialysis patients (human, UniProt P01270 32-115, limits assumed); assay: immunoassay-based Scatchard analysis in pooled serum of hemodialysis patients
T5 construct: Circulating hormone; may be a mix of intact PTH and fragments
T5 sequence (looked up): T4 peptide

[8] = biological target: T6, Human PTH (7-84) (human); assay: ELISA on coated peptide; B cell supernatant
T6 construct: Synthetic peptide bought from Bachem; also called hPTH7-84; 7-84mer
T6 peptide: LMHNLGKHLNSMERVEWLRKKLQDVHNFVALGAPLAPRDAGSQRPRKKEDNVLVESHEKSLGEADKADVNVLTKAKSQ

[9] = biological target: T1, Human PTH (1-34); assay: cell-based or functional assay
[10] = biological target: T1, Human PTH (1-34); assay: cell-based or functional assay
[11] = biological target: T7, PTH 20-28 peptide RVEWLRKAL; assay: alanine-scanning peptide array
T7 construct: Alanine variant; the entry already holds the change
T7 peptide: RVEWLRKAL

[12] = biological target: T8, PTH 20-28 peptide RVEALRKKL; assay: alanine-scanning peptide array
T8 construct: Alanine variant; the entry already holds the change
T8 peptide: RVEALRKKL

[13] = biological target: T9, PTH 20-28 peptide AVEWLRKKL; assay: alanine-scanning peptide array
T9 construct: Alanine variant; the entry already holds the change
T9 peptide: AVEWLRKKL

[14] = biological target: T10, PTH 20-28 peptide RVEWARKKL; assay: alanine-scanning peptide array
T10 construct: Alanine variant; the entry already holds the change
T10 peptide: RVEWARKKL

[15] = biological target: T11, PTH 20-28 peptide RAEWLRKKL; assay: alanine-scanning peptide array
T11 construct: Alanine variant; the entry already holds the change
T11 peptide: RAEWLRKKL

[16] = biological target: T12, PTH peptide RVEWLRKKL (amino acids 20-28, wild type); assay: alanine-scanning peptide array
T12 construct: Peptide on a custom peptide array; also called wild-type peptide
T12 peptide: RVEWLRKKL

[17] = biological target: T13, PTH 20-28 peptide RVEWLRKKA; assay: alanine-scanning peptide array
T13 construct: Alanine variant; the entry already holds the change
T13 peptide: RVEWLRKKA

[18] = biological target: T14, PTH 20-28 peptide RVEWLRAKL; assay: alanine-scanning peptide array
T14 construct: Alanine variant; the entry already holds the change
T14 peptide: RVEWLRAKL

[19] = biological target: T15, PTH 20-28 peptide RVAWLRKKL; assay: alanine-scanning peptide array
T15 construct: Alanine variant; the entry already holds the change
T15 peptide: RVAWLRKKL

[20] = biological target: T16, PTH 20-28 peptide RVEWLAKKL; assay: alanine-scanning peptide array
T16 construct: Alanine variant; the entry already holds the change
T16 peptide: RVEWLAKKL

[21] = biological target: T17, Human PTH-related peptide (1-34) (human); assay: indirect: competition ELISA on biotinylated human PTH 1-34
T17 construct: Synthetic peptide bought from Bachem; also called PTH-related protein 1-34; PTHrP
Description: Biotinylated human PTH 1-34 was bound to streptavidin plates at 1 μg/mL for 30 minutes at RT. The plates were washed 5 times with dH2O. […] The titrated antibody was then transferred to the plate coated with human PTH 1-34 and allowed to bind for 1 hour at RT. After washing the plates 5 times with dH2O, 50 μL of Gt anti-Human (Fc)-HRP at 1 μg/mL was added to each well and the plates held 1 hour at RT. After washing the plates 5 times with dH2O, 50 μL of TMB substrate was added to each well. To stop the reaction, 50 μL of 1M phosphoric acid was added to each well. The plates were read at wavelength 450 nm.

[22] = biological target: T2, Rat PTH (1-84); assay: KinExA, solution equilibrium, room temperature
Description: (§1) Kinetic analysis. […] This method involves solution-based determination of formal affinity measurements at equilibrium. Dual curve analysis with two known antibody concentrations and unknown antigen concentration was used to determine the KD measurements on human 34mer, human 84mer, cynomolgus 84mer and rat 84mer.

[23] = biological target: T18, Cynomolgus PTH (1-84) (cynomolgus); assay: KinExA, solution equilibrium, room temperature
T18 construct: Synthetic peptide (CS Bio Company for the KinExA measurement and the monkey study); also called cynoPTH (1-84); cynomolgus 84mer
T18 peptide: T4 peptide with V35I, V58I, N76D
Description: as §1

[24] = biological target: T4, Human PTH (1-84); assay: KinExA, solution equilibrium, room temperature
Description: as §1

[25] = biological target: T1, Human PTH (1-34); assay: KinExA, solution equilibrium, room temperature
Description: as §1

T17 sequence (peptide, as listed by the source): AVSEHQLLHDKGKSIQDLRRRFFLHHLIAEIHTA

B1: anti-PTH mAb 011 (antibody, IgG2, V domains shown)
VH: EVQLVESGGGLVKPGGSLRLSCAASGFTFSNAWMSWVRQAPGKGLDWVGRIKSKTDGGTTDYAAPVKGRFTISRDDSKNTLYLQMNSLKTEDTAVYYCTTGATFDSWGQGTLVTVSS
VL: DIVMTQSPLSLPVTPGEPASISCRSSQSLLHSNGYKFLDWFLQKPGQSPQLLIYLGSYRASGVPDRFSGRGSGTDFTLKISRVEAEDVGVYYCMQALQTPWTFGQGTKVEIK
notes: also called AB-PTH-XG2-011; well 133A8
- Kd [1]: 3.5 nM
- Kd [2]: 1 nM

B2: anti-PTH mAb 262 (antibody, IgG2, V domains shown)
VH: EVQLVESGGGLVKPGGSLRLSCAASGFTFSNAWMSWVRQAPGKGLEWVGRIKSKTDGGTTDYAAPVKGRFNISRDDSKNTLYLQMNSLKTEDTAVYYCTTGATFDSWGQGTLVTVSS
VL: B1 VL with F37Y, Y58I, R70S
notes: also called XG2-262; AB-PTH-XG2-262
- OD [3]: 2.11 OD450
- OD [4]: 0.25 OD450
- OD [5]: 1.46 OD450

B3: anti-PTH mAb 140 (antibody, IgG2, V domains shown)
VH: EVQLVESGGGLVKPGGSLTLSCAASGFTFSNAWLSWVRQAPGKGLEWVGRIKSKTDGGTTDYAAPVKGRFTVSRDDSKNTLFLQMNSLKTEDTAVYYCTTGATFDSWGQGTLVTVSS
VL: B1 VL with R70S, K79T
notes: also called AB-PTH-XG2-140; well 132G12
- Kd [1]: 5.2 nM
- Kd [2]: 0.8 nM

B4: anti-PTH mAb 163 (antibody, IgG2, V domains shown)
VH: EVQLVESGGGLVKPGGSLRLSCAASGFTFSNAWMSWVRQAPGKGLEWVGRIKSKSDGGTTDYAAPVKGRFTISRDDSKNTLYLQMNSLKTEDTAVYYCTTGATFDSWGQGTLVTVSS
VL: B1 VL with S32R, F37Y, F41Y, R70S, F76S
notes: also called AB-PTH-XG2-163; well 130A1
- Kd [1]: 7.9 nM
- Kd [6]: 41.1 nM
- Kd [2]: 3 nM

B5: anti-PTH mAb 214 (antibody, IgG2, V domains shown)
VH: EVQLVESGGGLVKPGGSLRLSCAASGSTFSNAWMSWVRQAPGKGLEWVGRIKSRTDGGTADYAAPVKGRFTISRDDLKKTLYLQMNSLKTEDTAVYYCTTYYFDSSGFPFDYWGQGTLVTVSS
VL: B1 VL with S10Y, F37Y, D39E, F41Y, I53V, Y58N, R70S, W101L, Q105G
notes: also called AB-PTH-XG2-214; well 267D10
- Kd [1]: 0.4 nM
- Kd [6]: 1.6 nM
- Kd [2]: 0.8 nM

B6: anti-PTH mAb 225 (antibody, IgG2, V domains shown)
VH: not shown
VL: EIVMTQSPLNLPVTPGEPASISCRSSQSLLHSNGYKYLEWYLQKPGQSPQLLIYLGSNRASGVPDRFSGSGSGTDFTLKISRVEAEDVGVYYCMQTLQIPLTFGGGTKVEIK
notes: also called well 275A4
- Kd [1]: 0.6 nM
- Kd [6]: 7.1 nM
- Kd [2]: 0.35 nM

B7: anti-PTH mAb 124 (antibody, IgG2, V domains shown)
VH: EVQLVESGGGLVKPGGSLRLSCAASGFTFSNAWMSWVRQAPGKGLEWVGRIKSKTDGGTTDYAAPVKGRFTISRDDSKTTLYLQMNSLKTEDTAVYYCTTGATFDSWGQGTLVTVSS
VL: B1 VL with H31Y, Y35F, F37Y, R70S
notes: also called AB-PTH-XG2-124; well 135H11
- Kd [1]: 3.3 nM
- Kd [2]: 0.5 nM

B8: anti-PTH mAb 057 (antibody, IgG2, V domains shown)
VH: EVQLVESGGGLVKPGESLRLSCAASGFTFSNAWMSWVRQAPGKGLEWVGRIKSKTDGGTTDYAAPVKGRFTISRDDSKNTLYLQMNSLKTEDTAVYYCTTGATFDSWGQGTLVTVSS
VL: B1 VL with H31Y, F37Y, F41Y, R70S
notes: also called AB-PTH-XG2-057; well 119G2
- Kd [1]: 1 nM
- Kd [2]: 1 nM

B9: anti-PTH mAb 045 (antibody, IgG2, V domains shown)
VH: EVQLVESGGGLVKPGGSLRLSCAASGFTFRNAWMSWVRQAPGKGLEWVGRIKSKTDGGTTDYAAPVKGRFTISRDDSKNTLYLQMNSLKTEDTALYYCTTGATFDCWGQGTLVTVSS
VL: B1 VL with K36N, F37Y, R70S, V90I, L97R
notes: also called AB-PTH-XG2-045; well 123B12
- Kd [1]: 2 nM
- Kd [2]: 0.5 nM

B10: anti-PTH mAb 183 (antibody, human IgG2, V domains shown)
VH: EVQLVQSGAEVKKPGESLKISCKGSGYSFTSYWIGWVRQMPGKGLEWMGIISPGDSDTRYSPSFQGQVTISADKSISTAYLQWSSLKASDTAMYYCARQGDYVWGSYDSWGQGTLVTVSS
VL: DIVMTQTPLSLSVTPGRPASISCKSSQSLLDSDGKTYLYWYLQKPGQPPQLLIYEVSNRFSGVPDRFSGSGSGTDFTLRISRVEAEDVGIYFCMPSIHLWTFGQGTKVEIK
- Kd [7]: 0.06 nM
- OD [3]: 0.62 OD450
- OD [4]: 3.26 OD450
- OD [8]: 1.95 OD450
- OD [5]: 1.4 OD450
- Kd [1]: 0.1 nM
- Kd [6]: 1 nM
- IC50 (read off the curve) [9]: ~100 nM
- IC50 of calcium influx in UMR-106 cells (FLIPR) [10]: ~100 nM
- binding result [11]: no binding
- binding result [12]: binds
- binding result [13]: no binding
- binding result [14]: no binding
- binding result [15]: no binding
- binding result [16]: binds
- binding result [17]: no binding
- binding result [18]: binds
- binding result [19]: no binding
- binding result [20]: no binding
- binding result [21]: no binding (tested: 5 µg/mL PTHrp)
- KD High [22]: 5 nM
- KD Low [22]: 2 nM
- Kd [22]: 3 nM
- KD High [23]: 0.018 nM
- KD Low [23]: 0.005 nM
- Kd [23]: 0.01 nM
- KD High [24]: 0.039 nM
- KD Low [24]: 0.012 nM
- Kd [24]: 0.022 nM
- KD High [25]: 0.065 nM
- KD Low [25]: 0.014 nM
- Kd [25]: 0.033 nM
- Kd [2]: 0.08 nM

B11: anti-PTH mAb 168g2/183k (antibody, V domains shown)
VH: B10 VH with G26R, S28I, S31N, S52Y, K74M, Y107F
VL: B10 VL
- Kd [1]: 0.64 nM
- Kd [2]: 0.28 nM

B12: anti-PTH mAb 168 (antibody, human IgG2, V domains shown)
VH: B10 VH with G26R, S28I, S31N, S52Y, K74M, Y107F
VL: B10 VL with R17Q, R79K, I90V, F92Y, P95Q, H98Q
notes: also called XG2-168; AB-PTH-XG2-168
- Kd [1]: 2.6 nM
- Kd [2]: 2.7 nM

B13: anti-PTH mAb 026 (antibody, IgG2, V domains shown)
VH: QVQLVESGGGVVQPGRSLRLSCAASGFTFSSYGMHWVRQAPGKGLDWVAVISYDGSNKFYADSVKGRFTISRDNSKNTLYLQMNSLRAEDTAVYYCARDHWELLDYWGQGTLVTVSS
VL: DIVMTQTPLSLSVTPGQPASISCKSSQSLLDSDGKTYLYWYLQRSGQPPQLLIHEVSNRFSGVPYRFIGSGSGTDFTLKISRVEAEDVGAYYCMQGKQFPFIFGPGTKVDIK
notes: also called AB-PTH-XG2-026; well 126B1
- Kd [1]: 9.5 nM
- Kd [2]: 3 nM
